In patent US20220040297A1 (Chugai, published 2022):
Residue numbers refer to the chain shown, from its start. Numbers in names are those of the source.

B1: NNS6f63 (antibody)
heavy: QVQLVESGGGLVQPGRSLRLSCAASGFTFSNAWMHWVRQAPGKGLEWVAQIKDKSNNYATYYAESVKGRFTISRDDSKNSIYLQMNSLKTEDTAVYYCRYVHYAAGGGGWVYYGVDAWGQGTTVTVSSASTKGPSVFPLAPSSKSTSGGTAALGCLVKDYFPEPVTVSWNSGALTSGVHTFPAVLQSSGLYSLSSVVTVPSSSLGTQTYICNVNHKPSNTKVDKKVEPKSCDKTHTCPPCPAPEAAGGPSVFLFPPKPKDTLMISRTPEVTCVVVDVSHEDPEVKFNWYVDGVEVHNAKTKPREEQYASTYRVVSVLTVLHQDWLNGKEYKCKVSNKALPAPIEKTISKAKGQPREPQVYTLPPSRCELTKNQVSLSCAVKGFYPSDIAVEWESNGQPENNYKTTPPVLDSDGSFFLVSKLTVDKSRWQQGNVFSCSVMHEALHNHYTQKSLSLSPDYKDDDDK
chain: EPKSSDKTHTCPPCPAPELLGGPSVFLFPPKPKDTLMISRTPEVTCVVVDVSHEDPEVKFNWYVDGVEVHNAKTKPREEQYNSTYRVVSVLTVLHQDWLNGKEYKCKVSNKALPAPIEKTISKAKGQPREPQVCTLPPSRDELTKNQVSLWCLVKGFYPSDIAVEWESNGQPENNYKTTPPVLDSDGSFFLYSKLTVDKSRWQQGNVFSCSVMHEALHNRYTQKSLSLSP
light: DIVMTQSPLSLPVTPGEPASISCRSSQSLVHSNRNTYLHWYQQKPGQAPRLLIYKVSNRFSGVPDRFSGSGSGTDFTLKISRVEAEDVGVYYCGQGTQVPYTFGQGTKLEIKRTVAAPSVFIFPPSDEQLKSGTASVVCLLNNFYPREAKVQWKVDNALQSGNSQESVTEQDSKDSTYSLSSTLTLSKADYEKHKVYACEVTHQGLSSPVTKSFNRGEC
notes: one-arm antibody
B2: NNS6f29 (antibody)
heavy: B1 heavy with G106I, G107Y, G108Y, G109P, W110T, V111N
chain: B1 chain
light: B1 light
notes: one-arm antibody
B3: NNS6f17 (antibody)
heavy: B1 heavy with G106W, G108E, W110V
chain: B1 chain
light: B1 light
notes: one-arm antibody
B4: NNS6f27 (antibody)
heavy: B1 heavy with G106V, G107W, G109S, W110V, V111W
chain: B1 chain
light: B1 light
notes: one-arm antibody
B5: GLS3000 G89Y (antibody, IgG1, name in Kabat numbering, V domains shown)
VH: QVQLVESGGGVVQPGRSLRLSCAASGFTFSNAWMHWVRQAPGKGLEWVAQIKAKSNNYATYYAESVKGRFTISRDDSKNSLYLQMNSLKTEDTAVYYCRYVHYGAYYGVDAWGQGTTVTVSS
VL: DIVMTQSPLSLPVTPGEPASISCRSSQSLVHSNRNTYLHWYQQKPGQAPRLLIYKVSNRFSGVPDRFSGSGSGTDFTLKISRVEAEDVGVYYCYQGTQVPYTFGQGTKLEIK
B6: GLS3000 V27cE (antibody, IgG1, name in Kabat numbering, V domains shown)
VH: B5 VH
VL: B5 VL with V30E, Y94G
B7: GLS3000 S25E (antibody, IgG1, name in Kabat numbering, V domains shown)
VH: B5 VH
VL: B5 VL with S25E, Y94G
B8: GLS3000 S27eE (antibody, IgG1, name in Kabat numbering, V domains shown)
VH: B5 VH
VL: B5 VL with S32E, Y94G
B9: GLS3000 L27bE (antibody, IgG1, name in Kabat numbering, V domains shown)
VH: B5 VH
VL: B5 VL with L29E, Y94G
B10: GLS3000 L33P (antibody, IgG1, name in Kabat numbering, V domains shown)
VH: B5 VH
VL: B5 VL with L38P, Y94G
B11: GLS3000 H34R (antibody, IgG1, name in Kabat numbering, V domains shown)
VH: B5 VH
VL: B5 VL with H39R, Y94G
B12: GLS3000 P95E (antibody, IgG1, name in Kabat numbering, V domains shown)
VH: B5 VH
VL: B5 VL with Y94G, P100E
B13: GLS3000 S27eL (antibody, IgG1, name in Kabat numbering, V domains shown)
VH: B5 VH
VL: B5 VL with S32L, Y94G
B14: GLS3000 R45D (antibody, IgG1, name in Kabat numbering, V domains shown)
VH: B5 VH
VL: B5 VL with R50D, Y94G
B15: GLS3000 H34M (antibody, IgG1, name in Kabat numbering, V domains shown)
VH: B5 VH
VL: B5 VL with H39M, Y94G
B16: GLS3000 N28D (antibody, IgG1, name in Kabat numbering, V domains shown)
VH: B5 VH
VL: B5 VL with N33D, Y94G
B17: GLS3000 R45Q (antibody, IgG1, name in Kabat numbering, V domains shown)
VH: B5 VH
VL: B5 VL with R50Q, Y94G
B18: GLS3000 R29V (antibody, IgG1, name in Kabat numbering, V domains shown)
VH: B5 VH
VL: B5 VL with R34V, Y94G
B19: GLS3000 T92Y (antibody, IgG1, name in Kabat numbering, V domains shown)
VH: B5 VH
VL: B5 VL with Y94G, T97Y
B20: GLS3000 Q90Y (antibody, IgG1, name in Kabat numbering, V domains shown)
VH: B5 VH
VL: B5 VL with Y94G, Q95Y
B21: GLS3000 H34E (antibody, IgG1, name in Kabat numbering, V domains shown)
VH: B5 VH
VL: B5 VL with H39E, Y94G
B22: GLS3000 Y96F (antibody, IgG1, name in Kabat numbering, V domains shown)
VH: B5 VH
VL: B5 VL with Y94G, Y101F
B23: GLS3000 R45E (antibody, IgG1, name in Kabat numbering, V domains shown)
VH: B5 VH
VL: B5 VL with R50E, Y94G
B24: GLS3000 N30Y (antibody, IgG1, name in Kabat numbering, V domains shown)
VH: B5 VH
VL: B5 VL with N35Y, Y94G
B25: GLS3000 G91S (antibody, IgG1, name in Kabat numbering, V domains shown)
VH: B5 VH
VL: B5 VL with Y94G, G96S

Molecular target: T1, CD3ε homodimer protein (human, UniProt P07766 23-126, limits assumed)
T1 construct: also called human CD3ε homodimer protein; CD3e homodimer
Assay: SPR (Biacore T200, 25°C); CD3ε homodimer immobilized on CM4, one-arm antibody as analyte
T1 sequence (P07766 23-126 limits assumed): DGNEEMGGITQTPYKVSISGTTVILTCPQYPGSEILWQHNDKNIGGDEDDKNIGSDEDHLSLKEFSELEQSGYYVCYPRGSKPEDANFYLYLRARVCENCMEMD

B1 and B2 are within 1.5-fold of each other in Kd: 0.069 µM for the first, 0.09 µM for the second.

Going from B3 to B4, the Kd falls from 0.074 µM to 0.038 µM (1.9-fold).

Molecular target: T2, CD3ε homodimer protein (human, UniProt P07766 23-126, limits assumed)
T2 construct: Whole entry named for the human CD3 epsilon chain
Assay: SPR, CD3e immobilized
T2 sequence (P07766 23-126 limits assumed): as above
Experimental: Each one-amino acid altered form constructed, expressed, and purified in the paragraph (6-2) was evaluated using Biacore T200 (GE Healthcare Japan Corp.). An appropriate amount of CD3ε homodimer protein was immobilized onto Sensor chip CM4 (GE Healthcare Japan Corp.) by the amine coupling method. Then, the antibody having an appropriate concentration was injected thereto as an analyte and allowed to interact with the CD3ε homodimer protein on the sensor chip. Then, the sensor chip was regenerated by the injection of 10 mmol/L glycine-HCl (pH 1.5). The assay was conducted at 25° C., and HBS-EP+ (GE Healthcare Japan Corp.) was used as a running buffer. […] Each parameter was calculated using Biacore T200 Evaluation Software (GE Healthcare Japan Corp.).
Specifically, when the amount of the GLS3000-containing antibody bound was defined as X and the amount of the L chain one-amino acid altered form bound was defined as Y, a value of Z (ratio of amounts bound)=Y/X was used.

Compared with B5, B6 is lower in “KD ratio to GLS3000” value: 1.32 for the first, 1.3 for the second.

First: B7
Second: B8
The “KD ratio to GLS3000” value of the first is higher: 6.54 for the first, 1.84 for the second.

Compared with B9, B10 is lower in “KD ratio to GLS3000” value: 26.8 for the first, 12.7 for the second.

Compared with B11, B12 is lower in “KD ratio to GLS3000” value: 85800 for the first, 1.61 for the second.

Going from B13 to B14, the “KD ratio to GLS3000” value falls from 1.66 to 0.86.

First: B15
Second: B16
The “KD ratio to GLS3000” value of the first is lower: 3.36 for the first, 4460 for the second.

Compared with B17, B18 is higher in “KD ratio to GLS3000” value: 0.98 for the first, 3.25 for the second.

First: B19
Second: B20
The “KD ratio to GLS3000” value of the first is lower: 2.53 for the first, 36.3 for the second.

Compared with B21, B22 is lower in “KD ratio to GLS3000” value: 5.03 for the first, 0.96 for the second.

B23 and B24 are the same in “KD ratio to GLS3000” value: 1.01 for the first, 1.01 for the second.

B25 was tested, and the “KD ratio to GLS3000” value was 7210.
